Consider three molecules from patent US20070243170A1 (UNIVERSITY OF CHICAGO, published 2007).

One experiment has as its target Nectin-1 (HveC) (UniProt Q15223). In words: cell-based or functional assay.
For another experiment, the target named is HveA (formerly HveM) (UniProt Q92956). The experiment is described as follows: cell-based or functional assay.
Experiment [1] deals with wild-type gD1-60 polypeptide (residues 1-60 of mature gD; plasmid pGG5414) (herpes simplex virus 1, UniProt P36318 26-85). In words: co-immunoprecipitation with anti-Myc from HEK293 cells co-transfected with pGG5417+pGG5414.

“IL13-gD chimeric glycoprotein D of recombinant virus R5144 (IL13 in the place of gD residues 1-32, V37S)”: the Replication of R5144 in J-Nectin cells (virus yield) with Nectin-1 (HveC) came out at 50. In the experiment with HveA (formerly HveM), this molecule yielded a Replication of R5144 in J-HveA cells (virus yield) of 300.

Turning to “IL13-gD chimeric glycoprotein D of recombinant virus R5141 (IL13 in the place of gD residues 1-32, V34S)”, the Replication of R5141 in J-Nectin cells (virus yield) in the experiment with Nectin-1 (HveC) was determined as 70. Besides, the Replication of R5141 in J-HveA cells (virus yield) with HveA (formerly HveM) was 40.

B1: gD219-314 polypeptide (mature gD residues 219-314, without transmembrane and cytoplasmic domains, Myc epitope at the C-terminus; plasmid pGG5417) (other)
chain: MLPRFIPENQRTVAVYSLKIAGWHGPKAPYTSTLLPPELSETPNATQPELAPEDPEDSALLEDPVGTVVPQIPPNWHIPSIQDAATPYHPPATPNN
notes: Expressed in HEK293 cells under the CMV promoter; also called C-terminal domain of gD; R5417
Turning to B1, in experiment [1], the binding result was “no binding”.
